These results are taken from the supplement of paper PMC9112550, “Optimization of the antimicrobial peptide Bac7 by deep mutational scanning” (BMC Biology, 2022).

The data set deals with Escherichia coli TOP10. Put plainly: shrunken log2 fold change of peptide-encoding DNA abundance (4.5 h post-induction vs induction); higher = less antimicrobial activity (less host growth inhibition). The note with it: time post-induction: 4.5 h; library: site-saturation at positions 5, 18, 19, 20.
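Further: peptides expressed intracellularly from a pBAD plasmid library in pooled LB shake-flask culture, induced with 0.3% L-arabinose, DNA abundance read by NGS, three biological replicates, DESeq2 with apeglm shrinkage.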

RRIRPRPPRLPRPRPRPRAAPRP: the “shrunken log2 fold change” value was 0.611.

RRIRERPPRLPRPRPRPTFNPRP: the “shrunken log2 fold change” value was -0.24.

With RRIRLRPPRLPRPRPRPFMMPRP, the “shrunken log2 fold change” value was -0.449.

For the sequence RRIRSRPPRLPRPRPRPVAPPRP, the “shrunken log2 fold change” value was 0.397.

On to RRIRKRPPRLPRPRPRPLFAPRP, for which the “shrunken log2 fold change” value was determined as 0.594.

Regarding RRIRIRPPRLPRPRPRPYQEPRP, the “shrunken log2 fold change” value was determined as 0.0173.

In the case of RRIRRRPPRLPRPRPRPYGFPRP, the “shrunken log2 fold change” value is -0.298.

As to RRIRGRPPRLPRPRPRPRNVPRP, the “shrunken log2 fold change” value was found to be 0.642.

As to RRIRTRPPRLPRPRPRPDWMPRP, the “shrunken log2 fold change” value amounted to 0.0121.

Turning to RRIRQRPPRLPRPRPRPPWVPRP, the “shrunken log2 fold change” value came out at 0.696.

RRIRWRPPRLPRPRPRPEDPPRP: the “shrunken log2 fold change” value came to 0.157.

As for RRIRYRPPRLPRPRPRPCFKPRP, the “shrunken log2 fold change” value was -0.328.

As for RRIRMRPPRLPRPRPRPDIEPRP, the “shrunken log2 fold change” value came to 1.3.

Regarding RRIRGRPPRLPRPRPRPRHVPRP, the “shrunken log2 fold change” value amounted to 0.218.

In the case of RRIRYRPPRLPRPRPRPCPHPRP, the “shrunken log2 fold change” value was -0.0263.

Consider RRIRKRPPRLPRPRPRPKGTPRP, for which the “shrunken log2 fold change” value stood at 0.00171.

Turning to RRIRRRPPRLPRPRPRPNGEPRP, the “shrunken log2 fold change” value was found to be 0.43.

As to RRIRWRPPRLPRPRPRPDHSPRP, the “shrunken log2 fold change” value is -0.198.

Turning to RRIRIRPPRLPRPRPRPIFVPRP, the “shrunken log2 fold change” value is -0.28.

Consider RRIRSRPPRLPRPRPRPNCRPRP, for which the “shrunken log2 fold change” value was -0.0318.

RRIRCRPPRLPRPRPRPWFFPRP: the “shrunken log2 fold change” value was -0.24.

As to RRIRQRPPRLPRPRPRPVWFPRP, the “shrunken log2 fold change” value turned out to be 0.111.

Take RRIRGRPPRLPRPRPRPRLSPRP: the “shrunken log2 fold change” value came to 0.313.

For RRIRFRPPRLPRPRPRPVHRPRP, the “shrunken log2 fold change” value was -0.261.

With RRIRQRPPRLPRPRPRPLIDPRP, the “shrunken log2 fold change” value was -0.206.

For RRIRERPPRLPRPRPRPTMDPRP, the “shrunken log2 fold change” value was determined as 0.0537.

With RRIRRRPPRLPRPRPRPQFYPRP, the “shrunken log2 fold change” value was -0.41.

As for RRIRHRPPRLPRPRPRPPIGPRP, the “shrunken log2 fold change” value turned out to be 0.0617.

Take RRIRRRPPRLPRPRPRPTGDPRP: the “shrunken log2 fold change” value came to 0.0418.

On to RRIRVRPPRLPRPRPRPTEPPRP, for which the “shrunken log2 fold change” value worked out at 0.128.

Turning to RRIRCRPPRLPRPRPRPVGHPRP, the “shrunken log2 fold change” value came to 0.0304.

For RRIRYRPPRLPRPRPRPRCTPRP, the “shrunken log2 fold change” value was -0.407.

For the sequence RRIRDRPPRLPRPRPRPHKPPRP, the “shrunken log2 fold change” value is -0.000627.

For the sequence RRIRFRPPRLPRPRPRPMAYPRP, the “shrunken log2 fold change” value was -0.0672.

In the case of RRIRERPPRLPRPRPRPAGMPRP, the “shrunken log2 fold change” value was -0.0133.

In the case of RRIRFRPPRLPRPRPRPHNGPRP, the “shrunken log2 fold change” value was -0.0493.

RRIRHRPPRLPRPRPRPIMYPRP: the “shrunken log2 fold change” value was -0.169.

As for RRIRLRPPRLPRPRPRPHLQPRP, the “shrunken log2 fold change” value is -0.0975.

RRIRFRPPRLPRPRPRPAVKPRP: the “shrunken log2 fold change” value was -0.137.

In the case of RRIRKRPPRLPRPRPRPCWAPRP, the “shrunken log2 fold change” value stood at 0.114.

Turning to RRIRSRPPRLPRPRPRPNIDPRP, the “shrunken log2 fold change” value was -0.204.

For the sequence RRIRVRPPRLPRPRPRPPWRPRP, the “shrunken log2 fold change” value turned out to be 0.57.

On to RRIRIRPPRLPRPRPRPTVYPRP, for which the “shrunken log2 fold change” value is -0.177.

RRIRLRPPRLPRPRPRPVLIPRP: the “shrunken log2 fold change” value was -0.303.

Take RRIRCRPPRLPRPRPRPPIRPRP: the “shrunken log2 fold change” value is 0.0846.

Regarding RRIRVRPPRLPRPRPRPALLPRP, the “shrunken log2 fold change” value was -0.211.

For the sequence RRIRFRPPRLPRPRPRPQFWPRP, the “shrunken log2 fold change” value is 0.206.

Consider RRIRRRPPRLPRPRPRPIEYPRP, for which the “shrunken log2 fold change” value is -0.124.

As to RRIRMRPPRLPRPRPRPVKFPRP, the “shrunken log2 fold change” value was 0.0501.

As to RRIRIRPPRLPRPRPRPYASPRP, the “shrunken log2 fold change” value was -0.206.

In the case of RRIRKRPPRLPRPRPRPSYAPRP, the “shrunken log2 fold change” value amounted to 0.0314.

For the sequence RRIRIRPPRLPRPRPRPPSWPRP, the “shrunken log2 fold change” value turned out to be 0.0866.

In the case of RRIRCRPPRLPRPRPRPQNPPRP, the “shrunken log2 fold change” value is -0.144.

For RRIRWRPPRLPRPRPRPQPMPRP, the “shrunken log2 fold change” value amounted to 0.145.

With RRIRMRPPRLPRPRPRPAKTPRP, the “shrunken log2 fold change” value was found to be 0.0368.

With RRIRKRPPRLPRPRPRPVYSPRP, the “shrunken log2 fold change” value is 0.0204.

With RRIRDRPPRLPRPRPRPMLFPRP, the “shrunken log2 fold change” value is -0.0792.

In the case of RRIRDRPPRLPRPRPRPKIIPRP, the “shrunken log2 fold change” value was -0.0166.

On to RRIRARPPRLPRPRPRPSYLPRP, for which the “shrunken log2 fold change” value is -0.716.

As for RRIRGRPPRLPRPRPRPSCHPRP, the “shrunken log2 fold change” value was 0.175.

Take RRIRFRPPRLPRPRPRPQVWPRP: the “shrunken log2 fold change” value was found to be 0.135.

As for RRIRDRPPRLPRPRPRPHADPRP, the “shrunken log2 fold change” value was -0.0841.

Regarding RRIRDRPPRLPRPRPRPLQKPRP, the “shrunken log2 fold change” value was -0.0982.

Turning to RRIRIRPPRLPRPRPRPLGMPRP, the “shrunken log2 fold change” value is -0.268.

For RRIRARPPRLPRPRPRPGAEPRP, the “shrunken log2 fold change” value is 1.1.

With RRIRQRPPRLPRPRPRPRGAPRP, the “shrunken log2 fold change” value amounted to 0.399.

With RRIRRRPPRLPRPRPRPMQHPRP, the “shrunken log2 fold change” value amounted to 0.566.

Turning to RRIRARPPRLPRPRPRPVEQPRP, the “shrunken log2 fold change” value is 0.446.

For the sequence RRIRIRPPRLPRPRPRPVPGPRP, the “shrunken log2 fold change” value is -0.0459.

For RRIRARPPRLPRPRPRPRFAPRP, the “shrunken log2 fold change” value stood at 0.513.

Take RRIRRRPPRLPRPRPRPVIFPRP: the “shrunken log2 fold change” value came out at 0.145.

For RRIRKRPPRLPRPRPRPICPPRP, the “shrunken log2 fold change” value was -0.122.

Consider RRIRKRPPRLPRPRPRPWKQPRP, for which the “shrunken log2 fold change” value is 0.0185.

Turning to RRIRHRPPRLPRPRPRPWPIPRP, the “shrunken log2 fold change” value is -0.00691.

For the sequence RRIRDRPPRLPRPRPRPQRTPRP, the “shrunken log2 fold change” value worked out at 0.0905.

In the case of RRIRLRPPRLPRPRPRPQIYPRP, the “shrunken log2 fold change” value was -0.17.

In the case of RRIRGRPPRLPRPRPRPQQWPRP, the “shrunken log2 fold change” value turned out to be 0.067.

On to RRIRDRPPRLPRPRPRPPAPPRP, for which the “shrunken log2 fold change” value was 1.05.

Consider RRIRLRPPRLPRPRPRPRTSPRP, for which the “shrunken log2 fold change” value was determined as 0.288.

As for RRIRARPPRLPRPRPRPHDAPRP, the “shrunken log2 fold change” value is 0.122.

Consider RRIRYRPPRLPRPRPRPDSPPRP, for which the “shrunken log2 fold change” value is -0.391.

For the sequence RRIRRRPPRLPRPRPRPWAEPRP, the “shrunken log2 fold change” value is 2.36.

With RRIRCRPPRLPRPRPRPLTHPRP, the “shrunken log2 fold change” value is -0.345.

On to RRIRSRPPRLPRPRPRPYPWPRP, for which the “shrunken log2 fold change” value is -0.591.

As to RRIRRRPPRLPRPRPRPSQDPRP, the “shrunken log2 fold change” value was found to be 0.112.

Take RRIRGRPPRLPRPRPRPPSKPRP: the “shrunken log2 fold change” value is 0.58.

For RRIRWRPPRLPRPRPRPELRPRP, the “shrunken log2 fold change” value is 0.0333.

With RRIRARPPRLPRPRPRPACKPRP, the “shrunken log2 fold change” value was 0.558.

Turning to RRIRSRPPRLPRPRPRPNDIPRP, the “shrunken log2 fold change” value is -0.333.

Take RRIRVRPPRLPRPRPRPGYFPRP: the “shrunken log2 fold change” value was -0.366.

In the case of RRIRRRPPRLPRPRPRPFCLPRP, the “shrunken log2 fold change” value came out at 0.194.

Take RRIRCRPPRLPRPRPRPFLYPRP: the “shrunken log2 fold change” value is -0.513.

For RRIRRRPPRLPRPRPRPVAAPRP, the “shrunken log2 fold change” value is 1.42.

Regarding RRIRYRPPRLPRPRPRPFWPPRP, the “shrunken log2 fold change” value stood at 0.0953.

On to RRIRGRPPRLPRPRPRPMYRPRP, for which the “shrunken log2 fold change” value was determined as 0.115.

On to RRIRYRPPRLPRPRPRPMQDPRP, for which the “shrunken log2 fold change” value was -0.28.

As to RRIRFRPPRLPRPRPRPCMTPRP, the “shrunken log2 fold change” value stood at 0.162.

Regarding RRIRARPPRLPRPRPRPYWCPRP, the “shrunken log2 fold change” value is -0.33.

For the sequence RRIRARPPRLPRPRPRPNIFPRP, the “shrunken log2 fold change” value was determined as 0.0429.

For the sequence RRIRYRPPRLPRPRPRPPTTPRP, the “shrunken log2 fold change” value was -0.165.

For RRIRYRPPRLPRPRPRPGITPRP, the “shrunken log2 fold change” value was -0.444.

As to RRIRERPPRLPRPRPRPGEWPRP, the “shrunken log2 fold change” value is 0.0118.

Turning to RRIRERPPRLPRPRPRPFKKPRP, the “shrunken log2 fold change” value was -0.0194.

Consider RRIRARPPRLPRPRPRPTRDPRP, for which the “shrunken log2 fold change” value is 0.759.

RRIRGRPPRLPRPRPRPNHNPRP: the “shrunken log2 fold change” value was -0.409.

For RRIRFRPPRLPRPRPRPETKPRP, the “shrunken log2 fold change” value was -0.0125.

For the sequence RRIRFRPPRLPRPRPRPDDTPRP, the “shrunken log2 fold change” value is 0.0516.

With RRIRARPPRLPRPRPRPRCGPRP, the “shrunken log2 fold change” value was 0.609.

Regarding RRIRIRPPRLPRPRPRPISNPRP, the “shrunken log2 fold change” value was -0.000216.

For RRIRWRPPRLPRPRPRPPAYPRP, the “shrunken log2 fold change” value is -0.0328.

On to RRIRLRPPRLPRPRPRPIWSPRP, for which the “shrunken log2 fold change” value is -0.256.

On to RRIRERPPRLPRPRPRPYRSPRP, for which the “shrunken log2 fold change” value is -1.42.

For RRIRHRPPRLPRPRPRPWEKPRP, the “shrunken log2 fold change” value was -0.359.

For RRIRLRPPRLPRPRPRPPLKPRP, the “shrunken log2 fold change” value was 0.253.

Take RRIRQRPPRLPRPRPRPVMRPRP: the “shrunken log2 fold change” value was determined as 0.444.

As for RRIRCRPPRLPRPRPRPNPTPRP, the “shrunken log2 fold change” value turned out to be 0.211.

Take RRIRRRPPRLPRPRPRPSWMPRP: the “shrunken log2 fold change” value was -0.324.

Turning to RRIRPRPPRLPRPRPRPWTLPRP, the “shrunken log2 fold change” value is 0.104.

RRIRVRPPRLPRPRPRPRNDPRP: the “shrunken log2 fold change” value is -0.00857.

With RRIRMRPPRLPRPRPRPHCNPRP, the “shrunken log2 fold change” value is 0.043.

On to RRIRTRPPRLPRPRPRPYQAPRP, for which the “shrunken log2 fold change” value was -0.206.

In the case of RRIRWRPPRLPRPRPRPILKPRP, the “shrunken log2 fold change” value was -0.281.

Turning to RRIRERPPRLPRPRPRPFNKPRP, the “shrunken log2 fold change” value was -0.383.

Take RRIRDRPPRLPRPRPRPDWPPRP: the “shrunken log2 fold change” value is -0.0123.

RRIRKRPPRLPRPRPRPFAFPRP: the “shrunken log2 fold change” value was found to be 0.272.
